The chains are these.
B4: Escherichia coli O-acetylserine sulfhydrylase CysK (enzyme, UniProt P0ABK5 1-323, looked up)
chain: MSKIFEDNSLTIGHTPLVRLNRIGNGRILAKVESRNPSFSVKCRIGANMIWDAEKRGVLKPGVELVEPTSGNTGIALAYVAAARGYKLTLTMPETMSIERRKLLKALGANLVLTEGAKGMKGAIQKAEEIVASNPEKYLLLQQFSNPANPEIHEKTTGPEIWEDTDGQVDVFIAGVGTGGTLTGVSRYIKGTKGKTDLISVAVEPTDSPVIAQALAGEEIKPGPHKIQGIGAGFIPANLDLKLVDKVIGITNEEAISTARRLMEEEGILAGISSGAAVAAALKLQEDESFTNKNIVVILPSSGERYLSTALFADLFTEKELQQ

Series [1] deals with Neisseria gonorrhoeae O-acetylserine sulfhydrylase CysK (Neisseria gonorrhoeae). The experiment in a line: SEC. In general terms: Size exclusion chromatography separates by hydrodynamic size, large species first.
For series [2] the target is unchanged. Nature of the series: SEC-SAXS.
Series [3] concerns the molecule itself. Nature of the series: SEC.
In series [4] the target is B4. The experiment in a line: SEC.
Series [5] concerns the molecule itself. The experiment in a line: SEC-SAXS.

What is called stoichiometry N is the number of molecules, sites or subunits per partner or assembly. “Neisseria gonorrhoeae O-acetylserine sulfhydrylase CysK (enzyme)”: the stoichiometry N in series [1] and in series [2] was 2 each time.

B1: Escherichia coli serine acetyltransferase CysE (enzyme)
chain: MSCEELEIVWNNIKAEARTLADCEPMLASFYHATLLKHENLGSALSYMLANKLSSPIMPAIAIREVVEEAYAADPEMIASAACDIQAVRTRDPAVDKYSTPLLYLKGFHALQAYRIGHWLWNQGRRALAIFLQNQVSVTFQVDIHPAAKIGRGIMLDHATGIVVGETAVIENDVSILQSVTLGGTGKSGGDRHPKIREGVMIGAGAKILGNIEVGRGAKIGAGSVVLQPVPPHTTAAGVPARIVGKPDSDKPSMDMDQHFNGINHTFEYGDGI
As to B1, the “stoichiometry N” value in series [3] was determined as 6. In addition, the binding result in series [4] is given as “binds”.

B2: Neisseria gonorrhoeae serine acetyltransferase CysE (enzyme)
chain: MKKNHLNTTGFDLWHTIREETAAAAAAEPMLASFLHQTVLRHESLGSVLAYHLSSKLGSPIMDVRALFEIYQQALGSDTQISKCVEADLKAIYERDPACDEYSLPLLYFKGFHAIQAHRINHRLYLDGRKTLAYFLQNRMSEVFGVDIHPAARLGYGLMLDHATGFVAGETAVLGNNISILHGVTLGGSGKEGGDRHPKIGDGVMIGANASILGNIRIGSNAKIGAGSVVVSDVPPSITVVGVPAKPVARSLKTPSADMDQNIQFAEIDFMI
Consider B2, for which the “stoichiometry N” value in series [3] stood at 6.

B3: Staphylococcus aureus O-acetylserine sulfhydrylase CysK (enzyme, UniProt P63870 1-310, looked up)
chain: MAQKPVDNITQIIGGTPVVKLRNVVDDNAADVYVKLEYQNPGGSVKDRIALAMIEKAEREGKIKPGDTIVEPTSGNTGIGLAFVCAAKGYKAVFTMPETMSQERRNLLKAYGAELVLTPGSEAMKGAIKKAKELKEEHGYFEPQQFENPANPEVHELTTGPELLQQFEGKTIDAFLAGVGTGGTLSGVGKVLKKEYPNIEIVAIEPEASPVLSGGEPGPHKLQGLGAGFIPGTLNTEIYDSIIKVGNDTAMEMSRRVAKEEGILAGISSGAAIYAAIQKAKELGKGKTVVTVLPSNGERYLSTPLYSFDD
As for B3, in series [5], the “stoichiometry N” value was 2.

On to B4, for which, in series [5], the “stoichiometry N” value was 2.

(Values after paper doi:10.1101/2025.03.26.645513 (bioRxiv, 2025).)
